Laboratory results as given in the supplement of paper PMC10201428.
± gives the standard deviation of the averaged measurements.

Columns and labels:
[1] = tested on: VchCAST RNA-guided transposition machinery (E. coli BL21(DE3) host, lacZ target); experiment: relative integration efficiency (T-LR orientation) vs wild-type transposon end (log2 (normalized fold change)); transposon end mutated: right end (5 bp flank + 75 bp right end); higher = more efficient transposition
Procedure, shortened: (§1)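 Each barcoded pool, 1549 left-end or 1849 right-end transposon variants in a pUC57 mini-transposon donor, went into E. coli BL21(DE3) with a T7-driven effector plasmid (CRISPR array, tniQ-cas8-cas7-cas6, tnsA-tnsB-tnsC). Plates contained 0.1 mM IPTG and were held at 37°C for 18 h. Input plasmids and genomic integration junctions were PCR-amplified and read by Illumina sequencing, with two biological output replicates and four reference barcodes. Relative integration efficiency is the fold change of output over input barcode abundance, normalised to the reference barcodes and log-transformed.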

[2] = tested on: VchCAST RNA-guided transposition machinery (E. coli BL21(DE3) host, lacZ target); experiment: relative integration efficiency (T-RL orientation) vs wild-type transposon end (log2 (normalized fold change)); transposon end mutated: right end (5 bp flank + 75 bp right end); higher = more efficient transposition
Procedure, shortened: as §1

| Sequence | relative integration efficiency (log2) [1] | relative integration efficiency (log2) [2] |
| --- | --- | --- |
| ACATTTGTTGATACAACCATAAAAGTCGCCGGCACAAACGCCCGGTCGCCGGCGACACAAACGCCCGGTCGCGGTAAGAGGATCATAGTCAGACCAACATTGCTACGACCCGTATTCGCACCGACAC | -2.61 ± 0.042 | -5.34 ± 0.34 |
| ACATTTGTTGATACCACCATCAAATGATAATTCCACCCATACATTGATAATTATCACACCCAATTTAACTATAACGCTCTGATCATAGTCAGACCAACATTGCTACGACCCGTATTCGCACCGACAC | -1.66 ± 0.086 | -4.883 ± 0.0066 |
| ACATTTGTTGATACAACCATAAAATGATCATTACACCCATAAATTGATAATTATCCCACCCCATTTAACTATAACGCTCTGATCATAGTCAGACCAACATTGCTACGACCCGTATTCGCACCGACAC | 1.87 ± 0.062 | -1.84 ± 0.31 |
| ACATTTGTTGATACAACCATAAAATGATAATTACACCCATAAATTGATAATTATCACACCCATAAATTGATATTGCCTCTGATCATAATTGTTATCCGCTCACAATTCCAGTCAGACGCACCGACAC | 0.885 ± 0.33 | -0.659 ± 0.41 |
| ACATTTGTTGATACAACCATAAAATGATAATTACACCCATAAATTGATAATTATCACACCCATAAATTGATATTGCCTAGGATCATAGTCAGACCAACATTGCTACGACCCGTATTCGCACCGACAC | 0.23 ± 0.42 | 0.0464 ± 0.076 |
| ACATTTGTTGATACAACCATAAAATGATAATTACCCCCATCAATTGATAATTATCACACCCCATTTAACTATAACGCTCTGATCATAGTCAGACCAACATTGCTACGACCCGTATTCGCACCGACAC | 0.526 ± 0.33 | -2.27 ± 0.37 |
| ACATTTGTTGAGCACACCATAAAATGATAATTACACCCATAAATTGATAATTATCACACCCATAAATTGATATTGCCTCTGATCATAGTCAGACCAACATTGCTACGACCCGTATTCGCACCGACAC | -1.83 ± 0.7 | -0.523 ± 0.031 |
| ACATTTCTCGATACAACCATAAAATGATAATTACACCCATAAATGGATCATTATCACACCCAATTTAACTATAACGCTCTGATCATAGTCAGACCAACATTGCTACGACCCGTATTCGCACCGACAC | 0.0432 ± 0.045 | -2.3 ± 0.27 |
| ACATTTGTTGATACAACCATAAAATGATAATTACACCCATAAATTGATAATTATCACACCCATAAATTGATATTGCCTCTGATCATAGTCAGACCAACCATAAAATGATAATTACAAGCACCGACAC | -0.0296 ± 0.24 | -0.253 ± 0.23 |
| ACATTTGTTGTAACAACCATAAAATGATAATTACACCCATAAATTGATAATTATCACACCCATAAATTGATATTGCCTCTGATCATAGTCAGACCAACATTGCTACGACCCGTATTCGCACCGACAC | -1.09 ± 0.54 | -0.2 ± 0.038 |
| ACATTTGTTGATACACCCATAAATTGATAATTACACCCATAAATTGATAATTATCACAACCATAAGTTGATATTTTCTCTGATCATAGTCAGACCAACATTGCTACGACCCGTATTCGCACCGACAC | -0.206 ± 0.42 | -0.361 ± 0.17 |
| ACATTTGTCGATACAACCATAAAATGATAATTCACCCATCAATTGATAATTATCACACCCCAATTTAACTATAACGCTCTGATCATAGTCAGACCAACATTGCTACGACCCGTATTCGCACCGACAC | 0.029 ± 0.092 | -3.3 ± 0.52 |
| ACATTTGTTGATACAACCATAAAATGATAATTACACCCATAAATTGATAATTATCACACCACTAAATTGATATTGCCTCTGATCATAGTCAGACCAACATTGCTACGACCCGTATTCGCACCGACAC | 2.35 ± 0.27 | -0.503 ± 0.044 |
| ACATTTGTTGATACACCCATAAATTGATAATTACAACCATAAAATGATAATTATCACAACCATAAGTTGATATTTTCTCTGATCATAGTCAGACCAACATTGCTACGACCCGTATTCGCACCGACAC | -0.36 ± 0.66 | -0.795 ± 0.13 |
| ACATTTGTTGATACAACCATAAAATGATAATTACACCCATAAATTGATAATTATCACCACCATAAATTGATATTGCCTCTGATCATAGTCAGACCAACATTGCTACGACCCGTATTCGCACCGACAC | 1.14 ± 0.095 | 0.659 ± 0.12 |
